US12331120 (dated 2025)
Substitutions are numbered along the chain they refer to.

B1: KL001-13 (antibody, V domains shown)
VH: QVQLVESGAEVKKPGSSVKVSCKASGGTFSSYAISWVRQAPGQGLEWMGRIIPILGIANYAQKFQGRVTVTADKSTSTAYMELSSLRSEDTAVYYCARSGYGYAYGSFDYWGQGTLVTVSS
VL: QLVLTQPPSVSGAPGQTVTISCTGQTIGAGYDVHWYQQLPGAAPKLLIYGNLNRPSGVPDRFSGSKSGTSASLAITDLQAEDEADYYCQSYDSRLGVVFGGGTKLTVL
B2: KL001 (PL110) (antibody, V domains shown)
VH: B1 VH with G102S
VL: B1 VL with Q25P

Experiments:
mouse PD-L1 = mouse PD-L1 (mouse, UniProt Q9EP73); experiment: SPR
mouse PD-L1, sequence (Q9EP73 19-238): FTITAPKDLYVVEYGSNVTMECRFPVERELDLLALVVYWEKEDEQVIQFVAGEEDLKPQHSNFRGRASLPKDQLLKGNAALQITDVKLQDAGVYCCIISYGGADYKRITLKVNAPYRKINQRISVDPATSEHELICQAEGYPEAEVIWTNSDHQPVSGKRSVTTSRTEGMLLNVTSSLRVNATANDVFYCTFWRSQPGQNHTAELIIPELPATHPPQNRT

human PD-L1 [1] = target: T1, human PD-L1 (human, UniProt Q9NZQ7); experiment: BLI
T1 sequence (Q9NZQ7 19-238): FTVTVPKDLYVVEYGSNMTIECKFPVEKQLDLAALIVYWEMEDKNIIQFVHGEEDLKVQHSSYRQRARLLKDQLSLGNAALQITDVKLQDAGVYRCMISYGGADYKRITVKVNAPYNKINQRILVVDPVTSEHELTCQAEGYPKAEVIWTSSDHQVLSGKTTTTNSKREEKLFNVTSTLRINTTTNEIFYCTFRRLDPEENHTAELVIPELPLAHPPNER

human PD-L1 [2] = target: T1, human PD-L1; experiment: SPR

Row | Binder | Kd (mouse PD-L1) | Kd (human PD-L1 [1]) | Kd (human PD-L1 [2])
1 | B1 | ~2.8 nM | 0.00489 nM | ~0.0632 nM
2 | B2 | – | 0.0584 nM | –
